Results reported in PMC8509827.

Molecular target: ArsR6 (Flag-tagged, in the complemented strain C[change]) (Brucella suis S2)
Assay: cross-linking

ArsR6 (Flag-tagged, in the complemented strain C[change]) (natural protein)
stoichiometry N: 2
